The series relates to Saccharomyces cerevisiae. In words: protein stability index of tFT-peptide fusion (C-terminal peptide) (PSI (0-1 scale)); higher = more stable (slower turnover). To be noted: temperature: 30 C. The protocol:
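MPS profiling in S. cerevisiae of the yeast C-terminome library: the last 12 aa of each annotated ORF are fused to the C-terminus of a sfGFP-mCherry timer, after a GGGS linker. Cells are FACS-sorted into 8 mCherry/sfGFP bins and deep-sequenced. PSI runs from 0 (unstable) to 1 (stable); wild type and das1Δ backgrounds, two technical replicates each.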

The mark [1] stands for this setting: genetic background: das1 deletion.

± gives the standard deviation of the averaged measurements.

Take WKKFIPKTWLSS [CQD2 C-terminal 12 aa]: the protein stability index under setting [1] was 0.7 ± 0.0086 and the protein stability index (genetic background: wild type) was found to be 0.4878 ± 0.0047.
The matching figures for WKKFLKFSKNSD [HXT13 C-terminal 12 aa]: 0.7176 ± 0.0052 and 0.685 ± 0.039.
The matching figures for WKLLDDSELGWY [RGT1 C-terminal 12 aa]: 0.836 ± 0.0089 and 0.804 ± 0.052.
As for WLKDQIIGEMTV [CAL4 C-terminal 12 aa], the protein stability index under setting [1] was determined as 0.696 ± 0.036 and the protein stability index (genetic background: wild type) came to 0.678 ± 0.025.
The matching figures for WPVTKPEDTKDN [ZWF1 C-terminal 12 aa]: 0.699 ± 0.013 and 0.67 ± 0.018.
Consider WRPQQPGQIEQA [YLR101C C-terminal 12 aa], for which the protein stability index runs as follows: under setting [1], 0.723 ± 0.03; (genetic background: wild type) 0.6668 ± 0.00094.
WTKDLGCWSLYK [HIR1 C-terminal 12 aa]: the protein stability index by setting is: under setting [1], 0.716 ± 0.025; (genetic background: wild type) 0.6994 ± 0.0037.
On the same counts, the results for WTNYLEKESEKD [RUD3 C-terminal 12 aa] are 0.711 ± 0.04 and 0.693 ± 0.045.
The matching figures for YAEGSLVKTEKL [FAA2 C-terminal 12 aa]: 0.70242 ± 0.0001 and 0.698 ± 0.016.
The matching figures for YCFAKNDLFFNN [POM152 C-terminal 12 aa]: 0.743 ± 0.014 and 0.716 ± 0.011.
As to YCPELGKTECFD [FMP30 C-terminal 12 aa], the protein stability index is, setting by setting: under setting [1], 0.691 ± 0.0061; (genetic background: wild type) 0.69 ± 0.0088.
In the case of YDANGSSSTIKR [MAM3 C-terminal 12 aa], the protein stability index is 0.736 ± 0.011 under setting [1] and 0.7007 ± 0.00097 (genetic background: wild type).
For YDEIVPLMSDEE [ECM21 C-terminal 12 aa], the protein stability index runs as follows: under setting [1], 0.7035 ± 0.0035; (genetic background: wild type) 0.716 ± 0.057.
YDLQALFKYFFS [ADY3 C-terminal 12 aa]: the protein stability index amounted to 0.691 ± 0.011 under setting [1] and 0.64 ± 0.022 (genetic background: wild type).
For the sequence YFKVFDWCKQKR [CLB6 C-terminal 12 aa], the protein stability index by setting is: under setting [1], 0.681 ± 0.018; (genetic background: wild type) 0.684 ± 0.043.
On the same counts, the results for YISDHIWKTSSH [YOR302W C-terminal 12 aa] are 0.743 ± 0.04 and 0.698 ± 0.035.
As for YKNRPNKEKDTL [STB6 C-terminal 12 aa], the protein stability index turned out to be 0.693 ± 0.021 under setting [1] and 0.688 ± 0.047 (genetic background: wild type).
The matching figures for YKSKRNTPTMLS [ISU1 C-terminal 12 aa]: 0.714 ± 0.027 and 0.653 ± 0.026.
For the sequence “YLARRKPSIELR [YPR170W-B C-terminal 12 aa]”, the protein stability index was found to be 0.716 ± 0.03 under setting [1] and 0.7212 ± 0.0052 (genetic background: wild type).
The matching figures for YLKNFFVKQKVV [ERP5 C-terminal 12 aa]: 0.549 ± 0.0073 and 0.16 ± 0.026.
For the sequence YLLENEPKDSFA [DCP1 C-terminal 12 aa], the protein stability index is, setting by setting: under setting [1], 0.703 ± 0.032; (genetic background: wild type) 0.731 ± 0.029.
The matching figures for YLNCTEREALRP [AEP1 C-terminal 12 aa]: 0.6794 ± 0.0038 and 0.752 ± 0.076.
For “YNIKRVLGVVYC [YAL067W-A C-terminal 12 aa]”, the protein stability index runs as follows: under setting [1], 0.345 ± 0.031; (genetic background: wild type) 0.362 ± 0.0077.
On the same counts, the results for YNPGLSMDFLTA [BCD1 C-terminal 12 aa] are 0.6899 ± 0.0018 and 0.714 ± 0.014.
On the same counts, the results for YNSLKKGASKSK [CNL1 C-terminal 12 aa] are 0.714 ± 0.021 and 0.74 ± 0.071.
With YNTTSITNSTSW [SRL1 C-terminal 12 aa], the protein stability index under setting [1] is 0.711 ± 0.016 and the protein stability index (genetic background: wild type) was 0.722 ± 0.09.
The matching figures for YPGAKTLTYTSR [CMI8 C-terminal 12 aa]: 0.703 ± 0.013 and 0.673 ± 0.01.
The matching figures for YPTFDDNNFFAL [RFA2 C-terminal 12 aa]: 0.732 ± 0.012 and 0.717 ± 0.0086.
On the same counts, the results for YSDEASAQKKRF [RPS2 C-terminal 12 aa] are 0.698 ± 0.0098 and 0.709 ± 0.039.
With YTPDQGVSLIDL [ENT2 C-terminal 12 aa], the protein stability index is 0.6978 ± 0.005 under setting [1] and 0.7 ± 0.015 (genetic background: wild type).
As to YTSWQTIKMWSQ [AVT3 C-terminal 12 aa], the protein stability index reads like this: under setting [1], 0.658 ± 0.007; (genetic background: wild type) 0.654 ± 0.029.
YVPPPTYTEMAS [ART10 C-terminal 12 aa]: the protein stability index worked out at 0.7074 ± 0.0038 under setting [1] and 0.66 ± 0.011 (genetic background: wild type).
The matching figures for YVSHKGFITEDL [RPL9A C-terminal 12 aa]: 0.689 ± 0.055 and 0.679 ± 0.035.

For the origin of these results see the supplement of paper PMC10724198.
